Data from US8450481B2, “Compounds for inhibiting protein aggregation, and methods for making and using them” (The Regents of the University of California, priority 2007, dated 2013).

Columns and labels:
[1] = system: HEK293T cells expressing α-syn; assay: ion currents in HEK293T cells expressing α-syn; format: cell-based; conditions: extracellular application of 500 μM Zn^2+, +80 mv
From the text: FIG. 3K, FIG. 3L and FIG. 3M graphically illustrate data showing representative currents elicited by depolarizing the cells from a holding potential of −50 mv to a series of test potentials ranging from −80 to +80 mv, and corresponding current-voltage relationship (E; means±SE) in transduced cells. Cells expressing α-syn display a significant increase in ion currents. FIG. 3N left panel graphically illustrates representative currents at +80 mv (left panel) before (Cont), during (Zn^2+) and after (Wash) application of 500 μM Zn^2+. FIG. 3N, right panel, graphically illustrates the time course of the change in current density before, during, and after extracellular application of Zn^2+. The arrows correspond to the currents shown in the left panel (Cont, a; Zn^2+, b; and Washout, c). The increased currents in cells expressing α-syn are attenuated by Zn^2+.

SYN [2] = target: T1, SYN (Homo sapiens, UniProt P37840); assay: cell free SYN aggregation assay with immunoblot; format: biochemical; conditions: for blocking SYN aggregation in cell free system, compared with the other peptides and controls: immunoblot
Protocol: The peptides of the invention were tested in a cell free system with the appropriate controls (smaller and larger peptides, amino acid (aa) substitutions, scrambled sequence). For this purpose recombinant SYN (10 uM) was incubated at 37 and 65 degrees C. for 0, 4, 6, 12 and 24 with the peptides at 0, 1 and 10 uM. Control experiments where performed with beta and gamma-synuclein as well as with a mutant SYN molecule that cannot bind the peptide. The mixture was run in a gel, followed by immunoblot testing with SYN antibodies.

[3] = system: neuronal cultures overexpressing α-syn; assay: neuronal viability by LDH assay in neuronal cultures overexpressing α-syn; format: cell-based
From the text: FIG. 17 illustrates the effects of a peptide blocker of α-syn aggregation of this invention in neuronal viability.

[4] = system: neuronal cultures overexpressing α-syn; assay: intracellular calcium influx by Fluo-4 and FLIPR assay in neuronal cultures overexpressing α-syn; format: cell-based; conditions: after 24 hrs at 37° C., compared to vehicle and scrambled peptide controls
From the text: FIG. 18 illustrates the effects of a peptide blocker of α-syn aggregation of this invention in neuronal calcium levels. FIG. 18A is a micrograph illustration showing that in neuronal cultures overexpressing α-syn there is a significant time dependent increase in intracellular calcium influx as determined by Fluo-4 and the FLIPR assay. […] (arrow) compared to vehicle and scrambled peptide controls. Data from these studies is graphically summarized on the right hand panels.

α-syn = target: T2, α-syn (Homo sapiens, UniProt P37840); assay: intraventricular infusion in α-syn transgenic mice; format: in vivo
T2 construct: from tissue; host or cells: brain (hippocampus) of thy1-α-syn transgenic mice
Protocol: FIG. 19 illustrates the effects of peptide blocker of α-syn aggregation in vivo in α-syn (α-syn) transgenic mice. FIG. 19A illustrates the experimental design: for these studies the thy1-overexpressing α-syn received intraventricular infusions with osmotic minipumps of control scrambled peptide, or the exemplary peptide of this invention 96-102 KKDQLGK (SEQ ID NO:1) for 6 weeks, at 30 μM peptide, where 200 μl of solution is minipumped into the lateral ventricle of the animal.

SYN [5] = target: T1, SYN; assay: α-syn aggregation/accumulation in neuronal cultures overexpressing α-syn (B103 neuronal cell line, lentivirus SYN); format: cell-based; design: expressed in transfected cells; host or cells: B103 neuronal cell line, lentiviral transduction; conditions: 24 hrs
Protocol: The B103 neuronal cell line was infected with a lentivirus expressing SYN (wildtype) or GFP (control) and cells expressing SYN were exposed to the peptides at 0, 1 and 10 uM for 24 hrs. Cells were assayed for SYN aggregation by immunoblot, neurite outgrowth and survival. […] The peptide KKDQLGK (SEQ ID NO:1) and control peptides can be injected into the brain of SYN transgenic (tg) mice to test for in vivo effects.

α-syn aggregation, cell free immunoblot assays (SYN [2]; at 37° C. and 65° C.) | levels of monomeric and aggregated α-syn, immunoblot (α-syn; infusion, compared to scrambled peptide controls) | α-syn accumulation in neuronal cultures overexpressing α-syn (SYN [5]; peptide at 1 uM, compared to vehicle) | Compound | increased ion currents in cells expressing α-syn [1] | blocking SYN aggregation in cell free system, compared with the other peptides and controls (SYN [2]) | neuronal viability as assayed by the LDH assay [3] | neuronal calcium influx [4] | neuronal α-syn accumulation in the hippocampus (α-syn; intraventricular infusion 6 weeks, 30 μM peptide, compared to scrambled peptide) | blocking SYN aggregation in neuronal cell based system, compared with the other peptides and controls (SYN [5]; immunoblot, B103 cells expressing SYN)
 |  |  | [Zn+2] [Zn^2+] | attenuated |  |  |  |  | 
 |  |  | EKTKEQVTN [amino acids 57-65 of SYN] |  | most effective at blocking SYN aggregation |  |  |  | 
reduced aggregation | significant reduction | reduced accumulation of α-syn dimer | KKDQLGK [amino acids 96-102 of human SYN] |  | most effective at blocking SYN aggregation | improved neuronal viability | reduced neuronal calcium influx | significant reduction in neuronal α-syn accumulation | most effective at blocking SYN aggregation
